Reference: US20040241164A1 (published 2004)

Target: T1, Soluble Aβ 1-40 (UniProt P05067 672-711)
T1 construct: domain: Aβ 1-40; Unaggregated, predominantly monomeric peptide flowed over captured antibody; The numbers 1-40 count on the Aβ peptide, not on the APP precursor
Assay: BIAcore SPR, alternate method: antibody captured on protein A or A/G, Aβ 1-40 in flow, 5 hour dissociation, 1:1 model with mass transfer; alternate method: antibody captured on protein A or A/G, 5 hour dissociation
Description: Protein A or protein A/G is immobilized via amine coupling to flow cells 1 and 2 of a B1 or CM5 sensor chip (BIAcore). The test antibody is then captured in flow cell 2 at desired levels (usually a 10-60 second injection of antibody) and 5 minutes is allowed for the antibody to stabilize. […] Each concentration is injected over the surface for 5 minutes at a flow rate of 50 μL/min. […] Aβ 1-40 and antibody are then eluted from both flow cells with a 40 second injection of glycine (pH 1.5). The signal is allowed to stabilize for 2 minutes before the next cycle. The data from flow cell 1 is subtracted from flow cell 2 to account for any bulk shifts due to buffer differences or non-specific binding to the sensor chip or protein A. The various concentrations are injected randomly and each concentration is run in duplicate. Two 0 nM runs are used to control for any dissociation of antibody from the protein A or A/G capture surface. The data is analyzed using the Biaevalution software. A 1:1 model with mass transfer and a local Rmax is used as the best fit for the data.

- Kd: 0.4 nM
B1: humanized 266 antibody (antibody, human IgG1, kappa, V domains shown)
VH: EVQLVESGGGLVQPGGSLRLSCAASGFTFSRYSMSWVRQAPGKGLELVAQINSVGNSTYYPDTVKGRFTISRDNAKNTLYLQMNSLRAEDTAVYYCASGDYWGQGTLVTVSS
VL: DVVMTQSPLSLPVTLGQPASISCRSSQSLIYSDGNAYLHWFLQKPGQSPRLLIYKVSNRFSGVPDRFSGSGSGTDFTLKISRVEAEDVGVYYCSQSTHVPWTFGQGTKVEIKR
